These results are taken from article PMC3210322 (Nature structural & molecular biology, 2011).

This test has as its target Rpt2-L437C (S. cerevisiae, UniProt P40327 1-437, L437C). In words: cross-linking.

Rpt2-L437C, sequence (P40327 whole entry L437C): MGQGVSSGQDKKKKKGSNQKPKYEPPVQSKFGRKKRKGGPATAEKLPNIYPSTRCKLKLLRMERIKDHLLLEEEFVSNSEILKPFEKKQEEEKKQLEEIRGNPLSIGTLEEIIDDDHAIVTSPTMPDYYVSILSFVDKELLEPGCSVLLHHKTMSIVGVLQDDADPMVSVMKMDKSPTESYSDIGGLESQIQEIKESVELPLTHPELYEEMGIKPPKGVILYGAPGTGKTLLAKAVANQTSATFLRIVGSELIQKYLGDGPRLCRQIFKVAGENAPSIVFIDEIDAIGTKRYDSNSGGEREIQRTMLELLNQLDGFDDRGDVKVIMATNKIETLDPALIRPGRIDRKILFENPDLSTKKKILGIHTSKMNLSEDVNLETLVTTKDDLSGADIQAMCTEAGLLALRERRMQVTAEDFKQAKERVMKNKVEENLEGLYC

B1: α4-N79C, not HA-tagged (natural protein)
chain: MSGYDRALSIFSPDGHIFQVEYALEAVKRGTCAVGVKGKNCVVLGCERRSTLKLQDTRITPSKVSKIDSHVVLSFSGLCADSRILIEKARVEAQSHRLTLEDPVTVEYLTRYVAGVQQRYTQSGGVRPFGVSTLIAGFDPRDDEPKLYQTEPSGIYSSWSAQTIGRNSKTVREFLEKNYDRKEPPATVEECVKLTVRSLLEVVQTGAKNIEITVVKPDSDIVALSSEEINQYVTQIEQEKQEQQEQDKKKKSNH
B1: the binding result is reported as “binds”.

B2: α4-C32A C46A N79C (natural protein)
chain: MSGYDRALSIFSPDGHIFQVEYALEAVKRGTAAVGVKGKNCVVLGAERRSTLKLQDTRITPSKVSKIDSHVVLSFSGLCADSRILIEKARVEAQSHRLTLEDPVTVEYLTRYVAGVQQRYTQSGGVRPFGVSTLIAGFDPRDDEPKLYQTEPSGIYSSWSAQTIGRNSKTVREFLEKNYDRKEPPATVEECVKLTVRSLLEVVQTGAKNIEITVVKPDSDIVALSSEEINQYVTQIEQEKQEQQEQDKKKKSNH
Take B2: the binding result is listed as “binds”.
